Assay [1] has as its target human ENPP3 on cells (human) (UniProt O14638). Nature of the assay: flow cytometry receptor quantification on HUH-7 cells.
Assay [2] shares this target. In words: flow cytometry receptor quantification on ACHN cells.
Assay [3] has the same target. In words: flow cytometry receptor quantification on CHO-K1 ENPP3-OE cells; bar above the ULOD line.
Assay [4] shares this target. Nature of the assay: flow cytometry receptor quantification on Hep3B cells.
Assay [5] shares this target. Nature of the assay: flow cytometry receptor quantification on TUHR4TKB cells (Table 18 of the text prints this value under a second TUHR10TKB row).
Assay [6] has the same target. Nature of the assay: flow cytometry receptor quantification on 786-O cells.
Assay [7] has the same target. In words: flow cytometry receptor quantification on KMRC20 cells.

Chain of human ENPP3 on cells (human) (O14638 whole entry): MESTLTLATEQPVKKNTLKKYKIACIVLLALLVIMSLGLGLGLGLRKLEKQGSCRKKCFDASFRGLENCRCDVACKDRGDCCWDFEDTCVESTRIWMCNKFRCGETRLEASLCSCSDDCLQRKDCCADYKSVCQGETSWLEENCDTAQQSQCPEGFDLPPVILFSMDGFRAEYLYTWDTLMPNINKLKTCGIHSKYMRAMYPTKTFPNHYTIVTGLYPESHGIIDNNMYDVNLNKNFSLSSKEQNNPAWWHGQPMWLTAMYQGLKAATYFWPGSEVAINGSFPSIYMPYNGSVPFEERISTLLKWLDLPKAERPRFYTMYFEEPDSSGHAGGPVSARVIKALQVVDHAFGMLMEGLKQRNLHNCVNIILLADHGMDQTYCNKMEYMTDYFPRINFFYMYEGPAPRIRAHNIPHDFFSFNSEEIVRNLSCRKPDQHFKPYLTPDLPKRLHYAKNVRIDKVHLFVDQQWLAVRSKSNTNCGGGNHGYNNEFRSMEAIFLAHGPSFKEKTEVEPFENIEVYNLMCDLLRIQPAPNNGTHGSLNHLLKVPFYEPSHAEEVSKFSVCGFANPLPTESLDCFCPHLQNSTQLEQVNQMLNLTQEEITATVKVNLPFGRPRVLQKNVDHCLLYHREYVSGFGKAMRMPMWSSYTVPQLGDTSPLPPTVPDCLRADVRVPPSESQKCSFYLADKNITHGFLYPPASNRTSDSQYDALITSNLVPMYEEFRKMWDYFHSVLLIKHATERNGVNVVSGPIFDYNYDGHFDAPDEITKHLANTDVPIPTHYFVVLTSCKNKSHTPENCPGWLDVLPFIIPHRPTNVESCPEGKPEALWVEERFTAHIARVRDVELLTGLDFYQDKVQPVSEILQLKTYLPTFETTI

For commercial ENPP3 antibody clone NP4D6, the ENPP3 Receptor Density - Antibody Binding capacity (ABC) in assay [1] is 7000 ABC; in assay [2], 5000 ABC; in assay [3], more than 470000 ABC; in assay [4], 13000 ABC; in assay [5] it was 61000 ABC; in assay [6], 4000 ABC. Besides, the ENPP3 Receptor Density - Antibody Binding capacity (ABC) in assay [7] turned out to be 21000 ABC.
